Measurements: patent US6153382

Tests used:
[1] = molecular target: HIV-1 Rev (Human immunodeficiency virus 1) (UniProt P04618); test: filter
[2] = molecular target: HIV-1 Rev (Human immunodeficiency virus 1) (UniProt P04618); test: competition; details: D1/2 vs labelled RRE; 17 nM rev

R7 full-length RRE transcript (238 nt)
Kd ([1]; 50% RNA bound at 10 nM rev, 43 mM Tris pH 8.0, 50 mM KCl, 4 C): 3 nM
Kd ([1]; Scatchard high-affinity site, 50 mM KCl): 2 nM
Kd ([1]; Scatchard high-affinity site, 200 mM KCl): 4 nM
IC50 [2]: 2 nM
